Source: article PMC10984146
Values joined by “and” are separate entries in the source; they are usually repeats but may differ in a detail not shown here. Equal values may be shown once. Read-outs that look alike come from different tables or passages of the source. Values belong to the substance of their own block, whether it stands above or below them.

Assays:
[1] = target: unclasped and untagged recombinant human integrin αVβ5 ectodomain (human) (UniProt P06756); assay: fluorescence polarisation
[2] = target: reconstituted αVβ5/Hsp90α complex (human) (UniProt P06756); assay: fluorescence polarisation
[3] = target: clasped and tagged recombinant human integrin αVβ5 ectodomain (human) (UniProt P06756); assay: BLI
A488-irisin-His [4] = target: A488-irisin-His (UniProt Q8NAU1); assay: fluorescence polarisation
A488-irisin-His [5] = target: A488-irisin-His (UniProt Q8NAU1); assay: fluorescence polarisation; remark: listed apart in the source
A488-FN10 (human) = assay: fluorescence polarisation
A488-irisin-bac = A488-irisin-bac (UniProt Q8NAU1); assay: fluorescence polarisation
A488-irisin-His [6] = target: A488-irisin-His (UniProt Q8NAU1); assay: MST

Kd [1]: 239 nM
Substance: FN10 (human fibronectin 10th FNIII domain, untagged) (domain or fragment)

Kd [2]: 52 nM
Kd [1]: 35 nM
Kd [3]: 212 nM
Substance: irisin-His (wild-type, glycosylated recombinant irisin from mammalian cells) (from UniProt Q8NAU1 1-191) (ligand)

Kd [1]: 294 nM and 299 nM
Substance: irisin-bac (non-glycosylated irisin produced in bacteria) (from UniProt Q8NAU1 1-260) (ligand)

Kd (A488-irisin-His [4]): 31 nM
Kd (A488-irisin-His [5]): 37 nM
Substance: reconstituted αVβ5/Hsp90α complex (from UniProt P06756 32-991; P18084 24-717; P07900 1-732)

Kd (A488-FN10 (human)): 146 nM
Kd (A488-irisin-His [5]): 28 nM
Kd (A488-irisin-bac): 256 nM
stoichiometry N (A488-irisin-His [6]): 1
Substance: unclasped and untagged recombinant human integrin αVβ5 ectodomain (from UniProt P06756 32-991; P18084 24-717) (receptor)

Kd [2]: 50 nM
Substance: unlabeled and untagged irisin (glycosylated, from mammalian cells) (from UniProt Q8NAU1 1-191) (ligand)

reduction of affinity for irisin compared to WT (A488-irisin-His [5]): 80%
Substance: αVβ5 ectodomain mutant E304R (β5) (from UniProt P06756 32-991; P18084 24-717) (receptor)

reduction of affinity for irisin compared to WT (A488-irisin-His [5]): > 90%
Substance: αVβ5 ectodomain mutant R218E (β5) (from UniProt P06756 32-991; P18084 24-717) (receptor)
